The supplement of paper PMC10567573

Assay: protein stability index of a GFP-peptide fusion (GPS, HEK-293T) (PSI 1-6); higher = more stable
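Note: lentivirally expressed fusions sorted by FACS into six bins by GFP to DsRed ratio, PSI derived from sequencing read proportions per bin multiplied by bin number.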

QELEEEIKELYENFCKHNGSKNVF
protein stability index (parent: IOH37933_70, c terminus: a fixed tail appended): 2.68

AEVVKIRDSFSNQNTETKDTKSR
protein stability index (parent: IOH28890_253, c terminus: native): 2.4

NLAGFILGCQGAQFVSSVPRCDLV
protein stability index (parent: IOH35782_4, c terminus: a fixed tail appended): 2.97

YQLGEEALLKFREDEGFVREEEDR
protein stability index (parent: IOH29649_44, c terminus: a fixed tail appended): 4.53

FGIEIEVTDINDNAPKFQAENLDV
protein stability index (parent: IOH36207_21, c terminus: a fixed tail appended): 2.77

EPHKCPECGKRFLRSSDLYRHQRL
protein stability index (parent: IOH29221_59, c terminus: a fixed tail appended): 3.96

HDDGYMICCDKCSVWQHIDCMGID
protein stability index (parent: IOH39874_22, c terminus: a fixed tail appended): 2.33

VFGRGDNISDVSKFLEDDKWMEE [CROP WT]
protein stability index (parent: IOH29119_14, c terminus: native): 1.95

YVDVVFANRPDPNTPMEETVRAMT
protein stability index (parent: IOH29625_26, c terminus: a fixed tail appended): 1.96

YRHQRLHTGERPYECTVCKKRFTR
protein stability index (parent: IOH29221_62, c terminus: a fixed tail appended): 2.36

NDDSADYQHFLQDCVDGLFKEVKE
protein stability index (parent: IOH28890_220, c terminus: a fixed tail appended): 2.66

HKKKSPGEKPHRCPQCGKCFARKS
protein stability index (parent: IOH29221_53, c terminus: a fixed tail appended): 3.46

SSIIHEIDSILGNKPYSKKDYRS
protein stability index (parent: IOH29625_62, c terminus: native): 2.88

YSLELGKAIKQKLWEALCSQGAIS [C22orf31 WT]
protein stability index (parent: IOH35430_40, c terminus: a fixed tail appended): 2.63

EKALASILLQDHIRDLDVVVVSVA
protein stability index (parent: IOH37933_8, c terminus: a fixed tail appended): 2.89

CTHCSKSFRQRAGLIMHQVTHFRG
protein stability index (parent: IOH29221_83, c terminus: a fixed tail appended): 2

TLHQRTHTEERPFKCNYCGKSFRQ
protein stability index (parent: IOH29221_76, c terminus: a fixed tail appended): 2.24

PCAGSTSLSHSPGCSSTQGNGRPG
protein stability index (parent: IOH28989_16, c terminus: a fixed tail appended): 3.04

FQEYDTDCEVFRQRFRQFQYREAA
protein stability index (parent: IOH29221_4, c terminus: a fixed tail appended): 2.58

RIHSGEEPHKCPECGKRFLRSSDL
protein stability index (parent: IOH29221_58, c terminus: a fixed tail appended): 3.27

DCMGIDRQHIPDTYLCERCQPRNL
protein stability index (parent: IOH39874_25, c terminus: a fixed tail appended): 2.99

RLRGLLRVLRGRPGAGSRRRGRMA [FBXO33 WT]
protein stability index (parent: IOH28939_7, c terminus: a fixed tail appended): 2.16

LGVAQRSLPLQDELAFAEDLVLDE
protein stability index (parent: IOH39702_46, c terminus: a fixed tail appended): 2.84

CALNALTTTVCLVAAALRYLQIFA
protein stability index (parent: IOH35782_16, c terminus: a fixed tail appended): 2.77

YINFRHLYKQRRRRYGQKKKKIH
protein stability index (parent: IOH29075_58, c terminus: native): 2.11

RDAIEALCRRLNTLNKCAVMKLEI
protein stability index (parent: IOH28890_83, c terminus: a fixed tail appended): 2.68

KEMARKVIEHCSNFKEENMDTSR
protein stability index (parent: IOH29391_126, c terminus: native): 3.58

LIKFQVGLKKLNLHEEEHVLLMAI
protein stability index (parent: IOH39811_53, c terminus: a fixed tail appended): 2.28

GSEAAVIPLDLGCTQVTQDGDIPN
protein stability index (parent: IOH35782_37, c terminus: a fixed tail appended): 5.39

YKVKERLGTLKNPPKKKMKLMSG
protein stability index (parent: IOH28989_68, c terminus: native): 1.99

FHALVREIRRKEKEAVLAMEKKSK [RIT1 WT]
protein stability index (parent: IOH29584_30, c terminus: a fixed tail appended): 1.93

YQSGGRLKRPVNVPFDIFTEEVKF
protein stability index (parent: IOH29649_40, c terminus: a fixed tail appended): 1.82

VFQHHQYLSPLERKRLAREMQLSE [VENTX WT]
protein stability index (parent: IOH36691_19, c terminus: a fixed tail appended): 2.52

YSCPATNECEITKRRRKSCQACRF [ESRRG WT]
protein stability index (parent: IOH39815_24, c terminus: a fixed tail appended): 3.16

FDGPEAWGVCEPQREEVEERMWAA
protein stability index (parent: IOH29391_108, c terminus: a fixed tail appended): 2.7

HTGERPYECTVCKKRFTRRSHLIG
protein stability index (parent: IOH29221_63, c terminus: a fixed tail appended): 2.07

SLPLQDELAFAEDLVLDEEGARAA
protein stability index (parent: IOH39702_47, c terminus: a fixed tail appended): 3.08

HFKKTKKMGGKDFSFRYQQELEEE
protein stability index (parent: IOH37933_67, c terminus: a fixed tail appended): 2.21

QLTGHQRIHSGEEPHKCPECGKRF
protein stability index (parent: IOH29221_57, c terminus: a fixed tail appended): 4.05

YGLQGGMAFLDKRLQVKEHQHEEI
protein stability index (parent: IOH37933_38, c terminus: a fixed tail appended): 2.62

FSFRYQQELEEEIKELYENFCKHN
protein stability index (parent: IOH37933_69, c terminus: a fixed tail appended): 2.5

PILRLLPQGISPVSQHWATWALYN
protein stability index (parent: IOH29391_115, c terminus: a fixed tail appended): 3.03

YSFYMLTCIDMDWKVLTWLRYTLW
protein stability index (parent: IOH29075_44, c terminus: a fixed tail appended): 2.31

LKASMRELGLLIFFLFIGVILFSS [KCNA1 WT]
protein stability index (parent: IOH35854_54, c terminus: a fixed tail appended): 2.1

QLDKNSEVYQEVQAMFDTLGIPKS [FAM98B WT]
protein stability index (parent: IOH35542_24, c terminus: a fixed tail appended): 3.16

TGTSNTTAIKSIEFARKGSCFLIN [RBBP5 WT]
protein stability index (parent: IOH28957_33, c terminus: a fixed tail appended): 2.08

VTLELSQLSMLPHLADLVSYSIQK
protein stability index (parent: IOH39811_37, c terminus: a fixed tail appended): 2.42

VAAALRYLQIFATRRSCIDESQIS
protein stability index (parent: IOH35782_18, c terminus: a fixed tail appended): 1.98

YVASHKIEKEEQEKKRKEEEERRR [ACBD3 WT]
protein stability index (parent: IOH39821_30, c terminus: a fixed tail appended): 2.71

IPPYSRASLKGYQWLKDKILSEEG
protein stability index (parent: IOH29625_44, c terminus: a fixed tail appended): 1.84

RFSRQCVVDKDKRNQCRYCRLKKC [HNF4A WT]
protein stability index (parent: IOH35808_17, c terminus: a fixed tail appended): 2.46

PRCDLVDLGEGKICFCCEEFQPAK
protein stability index (parent: IOH35782_7, c terminus: a fixed tail appended): 2.92

FHELQMQVTASDSGDPPLSSNVSL
protein stability index (parent: IOH36207_89, c terminus: a fixed tail appended): 2.17
